Data on 167 variants can be found in the Human Domainome abundance scans (Beltran et al. 2025).

The labels stand for the following.
B1: Pre-mRNA-processing factor 40 homolog B, residues 274 to 332; numbered along this chain, Q6NWY9 (parent)
chain: SNREKAKQAFKELLRDKAVPSNASWEQAMKMVVTDPRYSALPKLSEKKQAFNAYKAQRE

± gives the uncertainty stated by the source.

Variants of B1 are the subject of this series. Description: abundance fitness (aPCA) (normalised: wild type 0, dead -1); higher = more abundant; growth selection in yeast, the domain comes from the species named. The settings on record: Homo sapiens.
Regarding S21Q, the abundance fitness was 0.014 ± 0.13.
S21R: the abundance fitness was -0.083 ± 0.073.
Next, S21D: -0.077 ± 0.1.
Next, S21P: -0.146 ± 0.1.
Next, S21N: -0.492 ± 0.16; S21C: -0.001 ± 0.1.
Consider S21H, for which the abundance fitness was -0.037 ± 0.47.
In the case of S21M it was 0.074 ± 0.11.
Consider S21K, for which the abundance fitness turned out to be 0.134 ± 0.12.
Next, S21L: 0.109 ± 0.087.
With S21G, the abundance fitness was -0.103 ± 0.074.
For the variant S21W, the abundance fitness was -0.055 ± 0.13.
Regarding S21F, the abundance fitness turned out to be 0.029 ± 0.11.
Regarding S21T, the abundance fitness was 0.06 ± 0.093.
Next, S21E: -0.054 ± 0.12.
As for S21V, the abundance fitness amounted to 0.089 ± 0.073.
As for S21Y, the abundance fitness came out at 0.005 ± 0.12.
In the case of K30E it was 0.067 ± 0.12; in that of K30C, -0.423 ± 0.16.
Regarding K30D, the abundance fitness was -0.411 ± 0.12.
In the case of K30A it was -0.061 ± 0.078; in that of A23P, -0.533 ± 0.13.
Regarding A23K, the abundance fitness was -0.459 ± 0.1.
In the case of A23V it was -0.222 ± 0.065; in that of A23G, -0.464 ± 0.054.
Next, A23S: -0.313 ± 0.072; A23I: -0.122 ± 0.13; A23Q: -0.528 ± 0.093.
In the case of A23T it was -0.467 ± 0.1; in that of A23F, -0.348 ± 0.14.
On to A23M, for which the abundance fitness was -0.142 ± 0.096.
Regarding A23H, the abundance fitness is -0.591 ± 0.18.
In the case of A23R it was -0.506 ± 0.068; in that of A23D, -0.522 ± 0.091.
Next, A23C: -0.206 ± 0.083; A23N: -0.335 ± 0.12.
Next, A23Y: -0.254 ± 0.12; A28L: -0.684 ± 0.048.
For A28T, the abundance fitness was -0.299 ± 0.054.
In the case of A28I it was -0.595 ± 0.071; in that of A28G, -0.48 ± 0.055.
Take A28K: the abundance fitness is -0.524 ± 0.063.
In the case of A28Q it was -0.313 ± 0.065; in that of A28M, -0.576 ± 0.062; in that of A28E, -0.431 ± 0.074.
As to A28D, the abundance fitness is -0.473 ± 0.072.
Turning to A28R, the abundance fitness is -0.607 ± 0.05.
In the case of A28S, the abundance fitness is -0.413 ± 0.05.
Next, A28N: -0.445 ± 0.077; A28V: -0.277 ± 0.056; A28F: -0.563 ± 0.068.
Regarding A28H, the abundance fitness was -0.583 ± 0.067.
For A28W, the abundance fitness is -0.71 ± 0.068.
As for Q27G, the abundance fitness was -0.358 ± 0.059.
In the case of Q27I, the abundance fitness was -0.301 ± 0.2.
As to Q27H, the abundance fitness is -0.096 ± 0.24.
Next, Q27K: -0.292 ± 0.12; Q27F: -0.884 ± 0.23; Q27W: -1 ± 0.095.
For the variant Q27Y, the abundance fitness is -0.524 ± 0.15.
In the case of Q27P it was -0.531 ± 0.2.
Q27C: the abundance fitness is -0.422 ± 0.11.
As to Q27V, the abundance fitness was -0.297 ± 0.091.
Take Q27R: the abundance fitness was -0.342 ± 0.059.
In the case of Q27S it was -0.406 ± 0.11; in that of Q27T, 0.027 ± 0.11; in that of Q27N, -0.174 ± 0.15.
Next, Q27E: 0.115 ± 0.11; Q27A: -0.143 ± 0.091; Q27M: -0.297 ± 0.14.
Next, E26G: -0.274 ± 0.067.
As to E26Q, the abundance fitness is -0.412 ± 0.16.
In the case of E26W it was -0.598 ± 0.11; in that of E26L, -0.362 ± 0.088.
Next, E26A: -0.31 ± 0.091; E26D: -0.019 ± 0.12.
Next, E26Y: -0.581 ± 0.14; E26M: -0.325 ± 0.19.
Turning to E26V, the abundance fitness was -0.364 ± 0.083.
In the case of E26F it was -0.729 ± 0.16; in that of E26R, -0.719 ± 0.093; in that of E26H, -0.237 ± 0.22.
Regarding E26T, the abundance fitness is -0.006 ± 0.13.
In the case of E26P it was -0.149 ± 0.099; in that of E26S, -0.229 ± 0.089.
Next, E26I: -0.547 ± 0.15; E26K: -0.169 ± 0.13; W25K: -0.221 ± 0.14.
Turning to W25Y, the abundance fitness was -0.18 ± 0.12.
For W25T, the abundance fitness was -0.149 ± 0.093.
In the case of W25F it was 0.249 ± 0.12; in that of W25I, -0.251 ± 0.18; in that of W25S, -0.13 ± 0.075.
Turning to W25G, the abundance fitness was -0.161 ± 0.055.
Consider W25R, for which the abundance fitness was -0.189 ± 0.057.
Next, W25L: -0.242 ± 0.087; W25E: -0.095 ± 0.092; W25Q: -0.36 ± 0.3.
Next, W25A: -0.244 ± 0.082; W25P: -0.237 ± 0.11; W25N: 0.038 ± 0.12.
For the variant W25D, the abundance fitness was -0.114 ± 0.1.
In the case of W25C it was -0.109 ± 0.12; in that of W25H, -0.347 ± 0.22.
Next, W25V: -0.291 ± 0.073.
With S24R, the abundance fitness was -0.671 ± 0.079.
Next, S24A: -0.238 ± 0.063; S24I: -0.65 ± 0.19; S24Q: -0.422 ± 0.1.
In the case of S24D it was -0.355 ± 0.12.
As for S24F, the abundance fitness was -0.654 ± 0.13.
In the case of S24K it was -0.229 ± 0.091; in that of S24M, -0.591 ± 0.093; in that of S24Y, -0.74 ± 0.18.
S24P: the abundance fitness is -0.169 ± 0.13.
In the case of S24W, the abundance fitness is -1 ± 0.13.
As to S24C, the abundance fitness was -0.371 ± 0.16.
As to S24H, the abundance fitness is -0.344 ± 0.15.
Consider S24N, for which the abundance fitness is -0.447 ± 0.2.
For S24G, the abundance fitness is -0.366 ± 0.064.
Take S24V: the abundance fitness was -0.644 ± 0.067.
Next, S24E: -0.306 ± 0.088; N22G: -0.217 ± 0.062.
For N22E, the abundance fitness was 0.03 ± 0.088.
On to N22D, for which the abundance fitness came out at 0.05 ± 0.08.
In the case of N22C it was -0.211 ± 0.13.
Next, N22T: -0.014 ± 0.082; N22P: -0.664 ± 0.13.
Next, N22K: -0.553 ± 0.11.
As to N22S, the abundance fitness was -0.036 ± 0.074.
In the case of N22I it was -1.04 ± 0.31; in that of N22Y, -0.57 ± 0.15; in that of N22Q, -0.217 ± 0.16.
Consider N22L, for which the abundance fitness is -0.446 ± 0.089.
As to N22W, the abundance fitness was -0.063 ± 0.1.
In the case of N22M it was -0.623 ± 0.19.
As to N22H, the abundance fitness is -0.179 ± 0.17.
Consider N22R, for which the abundance fitness is -0.505 ± 0.06.
On to N22F, for which the abundance fitness was -0.906 ± 0.24.
In the case of M29V it was -0.114 ± 0.063.
Next, M29Y: -0.014 ± 0.14; M29A: -0.125 ± 0.075; M29D: -0.097 ± 0.1.
In the case of M29P it was -0.103 ± 0.1.
With M29G, the abundance fitness is -0.237 ± 0.058.
M29F: the abundance fitness is -0.295 ± 0.17.
In the case of M29E, the abundance fitness is -0.102 ± 0.1.
Turning to M29R, the abundance fitness was -0.078 ± 0.059.
Next, M29C: -0.203 ± 0.1; M29K: 0.166 ± 0.094; M29S: -0.136 ± 0.086.
As for M29T, the abundance fitness is -0.282 ± 0.088.
Take M29L: the abundance fitness was -0.216 ± 0.093.
In the case of M29Q, the abundance fitness is 0.047 ± 0.11.
Regarding P20M, the abundance fitness is -0.549 ± 0.083.
In the case of P20T it was -0.421 ± 0.083; in that of P20S, -0.506 ± 0.066; in that of P20I, -0.753 ± 0.14.
Next, P20R: -0.592 ± 0.053; P20K: -0.654 ± 0.12.
Regarding P20Y, the abundance fitness was -0.641 ± 0.14.
With P20F, the abundance fitness was -1.59 ± 0.38.
As for P20V, the abundance fitness was -0.578 ± 0.062.
In the case of P20G, the abundance fitness was -0.391 ± 0.05.
Next, P20N: -0.587 ± 0.13; P20L: -0.641 ± 0.072.
Take P20H: the abundance fitness was -0.789 ± 0.16.
